Experimental data published in patent US20220137067A1.

B1: crenezumab (antibody, INN chains, looked up, V domains shown)
VH: EVQLVESGGGLVQPGGSLRLSCAASGFTFSSYGMSWVRQAPGKGLELVASINSNGGSTYYPDSVKGRFTISRDNAKNSLYLQMNSLRAEDTAVYYCASGDYWGQGTTVTVSS
VL: DIVMTQSPLSLPVTPGEPASISCRSSQSLVYSNGDTYLHWYLQKPGQSPQLLIYKVSNRFSGVPDRFSGSGSGTDFTLKISRVEAEDVGVYYCSQSTHVPWTFGQGTKVEIKR
B2: crenezumab light stress sample (2.4 million lux hours) (antibody, INN chains, looked up, V domains shown)
VH: B1 VH
VL: B1 VL
modifications: light-stressed degraded sample

Columns and labels:
[1] = target: biotin beta-amyloid 1-42 peptide (Anaspec) (human); assay: cell-based or functional assay; conditions: scale: % Relative Potency
[2] = target: Recombinant human amyloid β 1-42 peptide (rPeptide) (human); assay: ELISA on plate-adsorbed recombinant human Aβ 1-42, anti-human IgG-HRP detection, parallel line analysis; mean of three assays; conditions: scale: % Relative Potency

Row | Binder | Phagocytosis Reporter Cell Potency [1] | Aβ Binding Potency (% Relative Potency) [2]
1 | B1 | 99 | –
2 | B2 | 86 | 84
